{"source": "paper PMC4240464", "key": {"[1]": {"biological_target": "CCL11 (human) (UniProt P51671)", "sequence (P51671 24-97)": "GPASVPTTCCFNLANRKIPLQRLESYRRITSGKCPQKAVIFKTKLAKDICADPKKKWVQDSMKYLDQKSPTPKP"}, "[2]": {"biological_target": "CCL24 (human) (UniProt O00175)", "sequence (O00175 27-119)": "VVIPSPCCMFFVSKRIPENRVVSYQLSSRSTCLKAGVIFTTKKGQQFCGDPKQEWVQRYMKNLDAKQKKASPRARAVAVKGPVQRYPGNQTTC"}, "[3]": {"biological_target": "Evasin-4–Fc (Rhipicephalus sanguineus)", "assay": "SPR"}, "[4]": {"biological_target": "Fc–Evasin-4 (Rhipicephalus sanguineus)", "assay": "SPR"}, "[5]": {"biological_target": "CCL22 (human) (UniProt O00626)", "sequence (O00626 25-93)": "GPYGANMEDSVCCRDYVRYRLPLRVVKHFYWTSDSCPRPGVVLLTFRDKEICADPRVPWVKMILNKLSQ"}, "[6]": {"biological_target": "CCL5 (wild type) (human) (UniProt P13501)", "sequence (P13501 24-91)": "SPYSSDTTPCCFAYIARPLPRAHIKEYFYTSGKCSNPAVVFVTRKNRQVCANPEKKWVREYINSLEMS"}}, "data": [{"substance": "Fc–Evasin-4 (Fc fusion)", "values": [{"measurement": "IC50, inhibition of chemotaxis of L1.2 CCR3 cells to CCL11 (EC80 1 nM)", "setting": "[1]", "value": 88, "unit": "nM"}, {"measurement": "IC50, inhibition of chemotaxis of L1.2 CCR3 cells to CCL24 (EC80 10 nM)", "setting": "[2]", "value": 113, "unit": "nM"}]}, {"substance": "CCL7 (from UniProt P80098 24-99) (ligand)", "values": [{"measurement": "Kd", "setting": "[3]", "value": 0.053, "unit": "nM"}, {"measurement": "Kd", "setting": "[4]", "value": 0.134, "unit": "nM"}]}, {"substance": "CCL8 (from UniProt P80075 24-99) (ligand)", "values": [{"measurement": "Kd", "setting": "[3]", "value": 0.015, "unit": "nM"}, {"measurement": "Kd", "setting": "[4]", "value": 0.088, "unit": "nM"}]}, {"substance": "CCL26 (from UniProt Q9Y258 24-94) (ligand)", "values": [{"measurement": "Kd", "setting": "[3]", "value": 15.6, "unit": "nM"}, {"measurement": "Kd", "setting": "[4]", "value": 17.3, "unit": "nM"}]}, {"substance": "Evasin-4–Fc (Fc fusion)", "values": [{"measurement": "IC50, inhibition of chemotaxis of L1.2 CCR4 cells to CCL22 (EC80 1 nM)", "setting": "[5]", "value": 38, "unit": "nM"}, {"measurement": "IC50, inhibition of chemotaxis of L1.2 CCR3 cells to CCL11 (EC80 1 nM)", "setting": "[1]", "value": 1540, "unit": "nM"}, {"measurement": "IC50, inhibition of chemotaxis of L1.2 CCR5 cells to CCL5 (EC80 1 nM)", "setting": "[6]", "value": 9.6, "unit": "nM"}, {"measurement": "IC50, inhibition of chemotaxis of L1.2 CCR3 cells to CCL24 (EC80 10 nM)", "setting": "[2]", "value": 642, "unit": "nM"}]}, {"substance": "CCL11 (from UniProt P51671 24-97) (ligand)", "values": [{"measurement": "Kd", "setting": "[3]", "value": 3.6, "unit": "nM"}, {"measurement": "Kd", "setting": "[4]", "value": 0.099, "unit": "nM"}]}, {"substance": "CCL5 E26A (from UniProt P13501 24-91) (ligand)", "values": [{"measurement": "Kd", "setting": "[3]", "value": 1.72, "unit": "nM"}, {"measurement": "Kd", "setting": "[4]", "value": 0.02, "unit": "nM"}]}, {"substance": "CCL3 (from UniProt P10147 24-92) (ligand)", "values": [{"measurement": "Kd", "setting": "[3]", "value": 6.79, "unit": "nM"}, {"measurement": "Kd", "setting": "[4]", "value": 0.277, "unit": "nM"}]}]}
